Reference: PMC9418313, “Multivalent interactions between molecular components involved in fast endophilin mediated endocytosis drive protein phase separation” (Nature Communications, 2022)

B1: full-length rat endophilin A1 (single-cysteine form) (natural protein, UniProt O35179 1-352, looked up)
chain: MSVAGLKKQFHKATQKVSEKVGGAEGTKLDDDFKEMERKVDVTSRAVMEIMTKTIEYLQPNPASRAKLSMINTMSKIRGQEKGPGYPQAEALLAEAMLKFGRELGDDSNFGPALGEVGEAMRELSEVKDSLDMEVKQNFIDPLQNLHDKDLREIQHHLKKLEGRRLDFDYKKKRQGKIPDEELRQALEKFDESKEIAESSMFNLLEMDIEQVSQLSALVQAQLEYHKQAVQILQQVTVRLCERIRQASSQPRREYQPKPRMSLEFATGDGTQPNGGLSHTGTPKPAGVQMDQPSSRALYDFEPENEGELGFKEGDIITLTNQIDENWYEGMLHGQSGFFPINYVEILVALPH
modifications: Alexa 594 or Alexa 488 C5-maleimide on the small labelled fraction (about 4-10 mol%) mixed with unlabelled protein
notes: endophilin A1, rat, full length, mutated to a single-cysteine form for labeling; also called A1 isoform of endophilin, from rat; full-length endophilin

Experiments:
[1] = target: full-length rat endophilin A1 (single-cysteine form) (rat) (UniProt O35179)
[2] = target: full-length rat endophilin A1 (single-cysteine form) (rat) (UniProt O35179); assay: client partitioning into condensate droplets (confocal microscopy, apparent partition coefficient); endophilin (25 µM) droplets with 10% PEG; Alexa-labeled client at 250 nM to 1 µM mixed in before PEG; 20 mM HEPES, 150 mM NaCl, 1 mM TCEP, pH 7.4, room temperature; apparent
[3] = target: endophilin N-BAR-only mutant (rat); assay: fluorescence intensity ratio of droplets vs. bulk solution (confocal microscopy); 1 µM Alexa 594-labeled variant with 25 µM of the same unlabeled variant, 10% PEG
[4] = target: B1; assay: cell-based or functional assay
[5] = target: B1; assay: client partitioning into condensate droplets (confocal microscopy, apparent partition coefficient); endophilin (25 µM) droplets with 10% PEG; Alexa-labeled client at 250 nM to 1 µM mixed in before PEG; 20 mM HEPES, 150 mM NaCl, 1 mM TCEP, pH 7.4, room temperature; apparent; details: both partners purified
[6] = target: the molecule itself; assay: fluorescence intensity ratio of droplets vs. bulk solution (confocal microscopy); 1 µM Alexa 594-labeled variant with 25 µM of the same unlabeled variant, 10% PEG

threshold endophilin concentration for LLPS (10% PEG) in the presence of 10 µM client (10 µM without client) [4] [µM] | apparent partition coefficient (Kapp) [5] | Molecule | further results
 |  | PRM7-His: heptameric repeat of a lamellipodin proline-rich motif (aa 970–981) joined by (Gly-Gly-Ser)4 linkers (from UniProt Q70E73 970-981; Q70E73 970-981; Q70E73 970-981; Q70E73 970-981; Q70E73 970-981; Q70E73 970-981; Q70E73 970-981) (designed binder) | threshold endophilin concentration for LLPS (10% PEG) in the presence of 10 µM client (10 µM without client) [1]: < 5 µM; apparent partition coefficient (Kapp) [2]: 26
 |  | endophilin N-BAR-only mutant (domain or fragment) | fluorescence intensity ratio inside vs. outside droplets [3]: 1800
 |  | BIN1 isoform 9 (natural protein) | apparent partition coefficient (Kapp) [2]: 267
≤ 5 | 138 | third intracellular loop (TIL) of the human β1-adrenergic receptor (aa 246–325) (domain or fragment, UniProt P08588 246-325, looked up, Alexa 488 (5-SDP ester) at the N-terminal on the labelled fraction, β1-adrenergic receptor, human, third intracellular loop, 80 amino acids, aa 246–325; Cloned in pGEX6p1; GST cleaved by PreScission protease; also called TIL-Alexa 488; source: E. coli BL21-CodonPlus(DE3)-RIL, purified (GST Trap, cation exchange)) RVFREAQKQVKKIDSCERRFLGGPARPPSPSPSPVPAPAPPPGPPRPAAAAATAPLANGRAGKRRPSRLVALREQKALKT | 
≤ 5 | 515 | lamellipodin C-terminal domain fragment LPD^850–1250 with C-terminal His6 tag (domain or fragment, UniProt Q70E73 850-1250, looked up, Alexa 647 succinimidyl ester on the labelled fraction, Synthesized and cloned into pGEX6p1 by Biomatik; also called LPD C-terminal domain; source: E. coli BL21-CodonPlus(DE3)-RIL, purified (Ni-NTA agarose, cation exchange); not shown: His6, C-terminal, kept) PPPSPLSPVPSVVKQIASQFPPPPTPPAMESQPLKPVPANVAPQSPPAVKAKPKWQPSSIPVPSPDFPPPPPESSLVFPPPPPSPVPAPPPPPPPTASPTPDKSGSPGKKTSKTSSPGGKKPPPTPQRNSSIKSSSGAEHPEPKRPSVDSLVSKFTPPAESGSPSKETLPPPAAPPKPGKLNLSGVNLPGVLQQGCVSAKAPVLSGRGKDSVVEFPSPPSDSDFPPPPPETELPLPPIEIPAVFSGNTSPKVAVVNPQPQQWSKMSVKKAPPPTRPKRNDSTRLTQAEISEQPTMATVVPQVPTSPKSSLSVQPGFLADLNRTLQRKSITRHGSLSSRMSRAEPTATMDDMALPPPPPELLSDQQKAGYGGSHISGYATLRRGPPPAPPKRDQNTKLSRDW | 
15 | 1130 | FBP17 (natural protein, UniProt Q96RU3 1-617, looked up, Alexa 488 C5-maleimide, Obtained from Harvey McMahon's lab; also called F-BAR family protein FBP17; FBP17 (Alexa 488); source: E. coli BL21-CodonPlus(DE3)-RIL, purified (GSTrap, size exclusion)) MSWGTELWDQFDNLEKHTQWGIDILEKYIKFVKERTEIELSYAKQLRNLSKKYQPKKNSKEEEEYKYTSCKAFISNLNEMNDYAGQHEVISENMASQIIVDLARYVQELKQERKSNFHDGRKAQQHIETCWKQLESSKRRFERDCKEADRAQQYFEKMDADINVTKADVEKARQQAQIRHQMAEDSKADYSSILQKFNHEQHEYYHTHIPNIFQKIQEMEERRIVRMGESMKTYAEVDRQVIPIIGKCLDGIVKAAESIDQKNDSQLVIEAYKSGFEPPGDIEFEDYTQPMKRTVSDNSLSNSRGEGKPDLKFGGKSKGKLWPFIKKNKLMSLLTSPHQPPPPPPASASPSAVPNGPQSPKQQKEPLSHRFNEFMTSKPKIHCFRSLKRGLSLKLGATPEDFSNLPPEQRRKKLQQKVDELNKEIQKEMDQRDAITKMKDVYLKNPQMGDPASLDHKLAEVSQNIEKLRVETQKFEAWLAEVEGRLPARSEQARRQSGLYDSQNPPTVNNCAQDRESPDGSYTEEQSQESEMKVLATDFDDEFDDEEPLPAIGTCKALYTFEGQNEGTISVVEGETLYVIEEDKGDGWTRIRRNEDEEGYVPTSYVEVCLDKNAKDS | 
30 | 352 | full-length human amphiphysin 1 (natural protein, UniProt P49418 1-695, looked up, Alexa 488 C5-maleimide, amphiphysin 1, human, full length; Plasmid from Pietro De Camilli's lab; also called Amph1; Amph1-Alexa 488) MADIKTGIFAKNVQKRLNRAQEKVLQKLGKADETKDEQFEEYVQNFKRQEAEGTRLQRELRGYLAAIKGMQEASMKLTESLHEVYEPDWYGREDVKMVGEKCDVLWEDFHQKLVDGSLLTLDTYLGQFPDIKNRIAKRSRKLVDYDSARHHLEALQSSKRKDESRISKAEEEFQKAQKVFEEFNVDLQEELPSLWSRRVGFYVNTFKNVSSLEAKFHKEIAVLCHKLYEVMTKLGDQHADKAFTIQGAPSDSGPLRIAKTPSPPEEPSPLPSPTASPNHTLAPASPAPARPRSPSQTRKGPPVPPLPKVTPTKELQQENIISFFEDNFVPEISVTTPSQNEVPEVKKEETLLDLDFDPFKPEVTPAGSAGVTHSPMSQTLPWDLWTTSTDLVQPASGGSFNGFTQPQDTSLFTMQTDQSMICNLAESEQAPPTEPKAEEPLAAVTPAVGLDLGMDTRAEEPVEEAVIIPGADADAAVGTLVSAAEGAPGEEAEAEKATVPAGEGVSLEEAKIGTETTEGAESAQPEAEELEATVPQEKVIPSVVIEPASNHEEEGENEITIGAEPKETTEDAAPPGPTSETPELATEQKPIQDPQPTPSAPAMGAADQLASAREASQELPPGFLYKVETLHDFEAANSDELTLQRGDVVLVVPSDSEADQDAGWLVGVKESDWLQYRDLATYKGLFPENFTRRLD | 
 |  | endophilin ΔH0 mutant (domain or fragment, Alexa 594 C5-maleimide on the labelled fraction) GGAEGTKLDDDFKEMERKVDVTSRAVMEIMTKTIEYLQPNPASRAKLSMINTMSKIRGQEKGPGYPQAEALLAEAMLKFGRELGDDCNFGPALGEVGEAMRELSEVKDSLDMEVKQNFIDPLQNLHDKDLREIQHHLKKLEGRRLDFDYKKKRQGKIPDEELRQALEKFDESKEIAESSMFNLLEMDIEQVSQLSALVQAQLEYHKQAVQILQQVTVRLEERIRQASSQPRREYQPKPRMSLEFATGDGTQPNGGLSHTGTPKPAGVQMDQPCCRALYDFEPENEGELGFKEGDIITLTNQIDENWYEGMLHGQSGFFPINYVEILVALPH | fluorescence intensity ratio inside vs. outside droplets [6]: 380
 |  | B1 | fluorescence intensity ratio inside vs. outside droplets [6]: 480
